T1: human Rad50 (human, UniProt Q92878 1-1312)
T1 construct: Captured by the 3xFLAG tag on anti-FLAG beads, then released by PreScission cleavage, so the tag is absent in the AFM samples; Expressed with Mre11 (and Nbs1) or alone; also called Rad50-3×FLAG; R of MRN, Mre11/Rad50 and M2R2; source: Sf9, baculovirus, purified (anti-FLAG M2 beads, eluted by PreScission cleavage, HiTrapQ, Superdex 200); not shown: 3xFLAG, C-terminal, cleaved
T1 sequence (looked up): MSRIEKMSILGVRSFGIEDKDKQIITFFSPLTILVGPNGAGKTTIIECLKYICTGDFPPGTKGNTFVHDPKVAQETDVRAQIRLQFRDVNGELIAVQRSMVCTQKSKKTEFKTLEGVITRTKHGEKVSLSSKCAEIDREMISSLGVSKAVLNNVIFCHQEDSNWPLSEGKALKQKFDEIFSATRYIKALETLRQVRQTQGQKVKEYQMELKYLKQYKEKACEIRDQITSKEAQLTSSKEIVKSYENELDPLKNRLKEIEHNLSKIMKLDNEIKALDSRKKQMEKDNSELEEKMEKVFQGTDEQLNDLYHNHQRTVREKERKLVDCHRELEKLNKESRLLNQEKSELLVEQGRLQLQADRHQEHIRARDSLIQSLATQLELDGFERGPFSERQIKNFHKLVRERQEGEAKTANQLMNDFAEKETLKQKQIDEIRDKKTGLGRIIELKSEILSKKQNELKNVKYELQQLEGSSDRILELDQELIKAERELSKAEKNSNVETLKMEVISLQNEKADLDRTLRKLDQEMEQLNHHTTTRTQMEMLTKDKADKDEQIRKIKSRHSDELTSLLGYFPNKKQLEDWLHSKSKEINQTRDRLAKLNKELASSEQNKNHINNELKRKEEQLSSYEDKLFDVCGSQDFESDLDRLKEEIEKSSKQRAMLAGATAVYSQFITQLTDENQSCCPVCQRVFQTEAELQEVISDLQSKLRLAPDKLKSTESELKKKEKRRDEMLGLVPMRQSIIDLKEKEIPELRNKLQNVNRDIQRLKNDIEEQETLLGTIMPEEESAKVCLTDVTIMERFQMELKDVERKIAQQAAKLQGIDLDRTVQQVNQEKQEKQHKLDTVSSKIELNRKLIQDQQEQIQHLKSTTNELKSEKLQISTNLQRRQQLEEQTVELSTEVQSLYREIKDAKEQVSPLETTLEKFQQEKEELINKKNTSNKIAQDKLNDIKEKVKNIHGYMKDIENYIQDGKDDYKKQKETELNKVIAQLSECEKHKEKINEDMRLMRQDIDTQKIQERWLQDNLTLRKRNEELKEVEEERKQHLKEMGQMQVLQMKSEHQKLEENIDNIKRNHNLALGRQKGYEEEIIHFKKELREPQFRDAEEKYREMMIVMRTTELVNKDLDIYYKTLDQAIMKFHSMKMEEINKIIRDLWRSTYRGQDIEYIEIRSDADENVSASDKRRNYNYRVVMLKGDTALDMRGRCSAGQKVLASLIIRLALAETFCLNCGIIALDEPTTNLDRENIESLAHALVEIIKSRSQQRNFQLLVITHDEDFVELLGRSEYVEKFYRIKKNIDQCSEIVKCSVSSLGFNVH


Columns and labels:
[1] = biological target: the molecule itself; experiment: high-speed AFM; purified complexes on bare mica, imaged in 25 mM Tris-HCl pH 7.5, 75 mM KCl, 3 mM MgCl2, tapping mode; with or without 1 mM ATP or ATP-γ-S
human Rad50 = biological target: T1, human Rad50; experiment: co-purification (anti-FLAG affinity, ion exchange, size exclusion); proteins co-expressed in Sf9 cells; extract at 200 mM KCl on anti-FLAG M2 beads by Rad50-3×FLAG, eluted by PreScission cleavage, HiTrapQ; wild-type Mre11/Rad50 further on Superdex 200; molar ratio from the purified preparations; conditions: partners not purified

Row | Binder | binding result [1] | stoichiometry N (human Rad50)
1 | S. pombe Rad50 (natural protein, UniProt Q9UTJ8 1-1285, looked up, Rad50, S. pombe; The host is a wild-type strain, so endogenous Rad50 and Mre11 were also present; also called fission yeast Rad50; rad50:TEV:PA; source: S. pombe CA3, from pREP1-rad50:TEV:PA, co-purified with Mre11-3xFLAG (anti-FLAG M2 agarose, HRV3C elution, Superose 6HR)) MSCIDRMSIMGIRSFDNRSRESIQFFSPLTLIVGQNGSGKTTIIECLKYATTGILPPNTKGGAFIHDPKICGEKEVLAQVKLAFRNTNQVKMICTRSLQLSVKKTTRQQKTLDGQLLILKDNERTTISNRCAELDSQVPLSLGVSKALLDYVIFCHQEESFWPLSEPANLKKRFDEIFESLRYAKALDQIKGLKRDQETQVKVDQATLTHYRSDKERAEKIELRVHESLKRISCIRSKVEELDQEITETARLQDELFKSTEEYEQQMITIRHLESQSDIINTTINDLKSQMTITDESSEDLEKLHSNFAEKVKEEQELYKSLEKKRSDLESLLKSRRELLEKLTGDLGKIQGEIESLEKLKVKKSTMINEIVHRYNINEINEEGIMTEVSKYASLVNKNYEISSGKLKERQVAVRARIEGIKAHEMFLNNRVSEINSSLEKQLTTQKELRSRFEILFPVKLQREDFTKDVEKSDLWIKSLRQEYESKNLLELLDKHQTALSSVENRLDEISEIVDSYHKYSGVRTKLQVFEENKTNKSAILANQLMTLKSSFSEVMSYELKDDDNYNEELDKLVEDVRKKLQEKEEAESSLRSVRERLEIRISLSVQSINDLTENKKIKTKTLKSYSGTFASMISEIKALESEIEENRKTLHSLQFGSTFYEKAIEICVDQHACQLCQRSLDKEEEKLFVEHCHSMIDVIPSKSAEVYSHLETLTKTFKNLSEAKPIFDEIELLDKRLSETKTELSDLQGDLQGLDIRKDEIQSELDTLYLRRANLEKLQLLVKDISNLEEEIRTIDRETEVLRIELPSSIAHHNLDEIYAEREKLLEKRGYLRKQIERTKLEETSFKKKIDDAVLANNEQKLKLTKLNFQVNELEQLEKDINKSSEDCDLQKKKLLEVSSKQGSQAPFLNELESEYEKLEADIQEMAQKSRTEILEANEYLHQLNEWNSELRIDVSTKFKCIKEKKSNIGEEVRIIASKIESTDDNLRKLQERLADLRTRERNASDNLRLRALMRQLEEAVTQKNYLLSQQSHDDRESFRERMQILKSKYGALNAERAGLLGECKQLENSITKDKEELNMEFKDADERFRRQLIKTKTTGKANEDLGKYAKALDVAIMQLHSMKMNEINRIVDELWKQTYCGTDIDTILIRSDSEGKGNRTYNYRVCMVKGDAELDMRGRCSAGQKVLACIIIRLALAECLGVNCGILALDEPTTNLDEENICSLAKNLSRIVEFRRKQANFQLIVITHDEQFIRLVNSDAYCSYYYRVKRDTNQKSMIVKEPL | binds | 
2 | human Mre11 (natural protein, UniProt P49959 1-708, looked up, Mre11, human, from human MRE11 cDNA in pFASTBAC1; also called M of MRN, Mre11/Rad50 and M2R2; source: Sf9, baculovirus, co-purified with Rad50-3×FLAG (anti-FLAG M2 beads, HiTrapQ, Superdex 200)) MSTADALDDENTFKILVATDIHLGFMEKDAVRGNDTFVTLDEILRLAQENEVDFILLGGDLFHENKPSRKTLHTCLELLRKYCMGDRPVQFEILSDQSVNFGFSKFPWVNYQDGNLNISIPVFSIHGNHDDPTGADALCALDILSCAGFVNHFGRSMSVEKIDISPVLLQKGSTKIALYGLGSIPDERLYRMFVNKKVTMLRPKEDENSWFNLFVIHQNRSKHGSTNFIPEQFLDDFIDLVIWGHEHECKIAPTKNEQQLFYISQPGSSVVTSLSPGEAVKKHVGLLRIKGRKMNMHKIPLHTVRQFFMEDIVLANHPDIFNPDNPKVTQAIQSFCLEKIEEMLENAERERLGNSHQPEKPLVRLRVDYSGGFEPFSVLRFSQKFVDRVANPKDIIHFFRHREQKEKTGEEINFGKLITKPSEGTTLRVEDLVKQYFQTAEKNVQLSLLTERGMGEAVQEFVDKEEKDAIEELVKYQLEKTQRFLKERHIDALEDKIDEEVRRFRETRQKNTNEEDDEVREAMTRARALRSQSEESASAFSADDLMSIDLAEQMANDSDDSISAATNKGRGRGRGRRGGRGQNSASRGGSQRGRADTGLETSTRSRNSKTAVSASRNMSIIDAFKSTRQQPSRNVTTKNYSEVIEVDESDVEEDIFPTTSKTDQRWSSTSSSKIMSQSQVSKGVDFESSEDDDDDPFMNTSSLRRNRR |  | ~1 Rad50 to Mre11, molar ratio
3 | E. coli SbcC (natural protein, SbcC (E. coli Rad50), E. coli; also called E. coli Rad50; SbcC of SbcCD; source: E. coli DL776 with plasmid pDL761, purified as SbcCD (HiTrap DEAE, ammonium precipitation, Superose 6, Mono Q)) not shown | binds | 

From article PMC6969161, “Rad50 zinc hook functions as a constitutive dimerization module interchangeable with SMC hinge” (Nature Communications, 2020)
